Assay results reported in publication PMC4595432.

Molecular target: DnaA fused to the N-terminal domain of the phage 434 repressor (pcI434-dnaA) (E. coli K12) (UniProt P03004)
Assay: two-hybrid; bacterial two-hybrid system in E. coli R721 (434-P22 chimeric operator upstream of lacZ); fusions to the N-terminal domains of the 434 and P22 repressors; β-galactosidase in Miller units, cultures at A600 0.5 in LB with 0.1 mM IPTG; an interaction lowers the activity and is scored positive when the ratio to R721 is below 0.5

HtpG fused to the N-terminal domain of the phage P22 repressor (pcIP22-htpG) (from UniProt P0A6Z3 1-624) (natural protein)
ratio β-galactosidase activity tested strain/R721: 0.19 | β-galactosidase activity: 1070 Miller units
